Assay results taken from the RNAGym collection of RNA variant scans (doi:10.7554/elife.80360).

B1: HDV Ribozyme (parent)
chain: GGCCGGCAUGGUCCCAGCCUCCUCGCUGGCGCCGGCUGGGCAACAUUCCGAGGGGACCGUCCCCUCGGUAAUGGCGAAUGGGACCCA

Variants of: B1
Assay: self-cleavage, relative activity (ratio to wild type); higher = more cleavage; co-transcriptional

Q: For C24A G39A, which self-cleavage is on record?
A: 0.0779

Q: Which self-cleavage does the source give for C24U A78G here?
A: 0.397

Q: Which self-cleavage does the source give for G25A C33U here?
A: 0.0911

Q: For C24U C33U, which self-cleavage is on record?
A: 0.354

Q: For G25A C49U, which self-cleavage is on record?
A: 0.318

Q: With G25A C49G as the variant, how does the self-cleavage read?
A: 0.0755

Q: Which self-cleavage does the source give for G25A C49A here?
A: 0.101

Q: For G25A A78U, which self-cleavage is on record?
A: 0.0346

Q: For G25A A78C, which self-cleavage is on record?
A: 0.0302

Q: With C24U C62U as the variant, how does the self-cleavage read?
A: 0.763

Q: Which self-cleavage does the source give for C24U C62A here?
A: 0.471

Q: For C24U C62G, which self-cleavage is on record?
A: 0.341

Q: Which self-cleavage does the source give for C24U A43C here?
A: 0.0739

Q: With C24U G82C as the variant, how does the self-cleavage read?
A: 0.163

Q: Which self-cleavage does the source give for C24U G82U here?
A: 0.0692

Q: With C24G G59A as the variant, how does the self-cleavage read?
A: 0.0955

Q: For C24G G59U, which self-cleavage is on record?
A: 0.147

Q: For C24G G59C, which self-cleavage is on record?
A: 0.0923

Q: With G25A C30A as the variant, how does the self-cleavage read?
A: 0.126

Q: With G25A C30G as the variant, how does the self-cleavage read?
A: 0

Q: With C24U G28U as the variant, how does the self-cleavage read?
A: 0.119

Q: Which self-cleavage does the source give for C24G C86G here?
A: 0.112

Q: For C24G C86A, which self-cleavage is on record?
A: 0.106

Q: Which self-cleavage does the source give for C24G U27C here?
A: 0.0791

Q: With C24G U27G as the variant, how does the self-cleavage read?
A: 0.0536

Q: Which self-cleavage does the source give for G25A C64A here?
A: 0.115

Q: With C24U A45U as the variant, how does the self-cleavage read?
A: 0.489

Q: With C24U A45C as the variant, how does the self-cleavage read?
A: 0.26

Q: Which self-cleavage does the source give for C24G G68U here?
A: 0.0191

Q: With C24G G68C as the variant, how does the self-cleavage read?
A: 0.126

Q: Which self-cleavage does the source give for C24U A42G here?
A: 0.0923

Q: For C24U U27C, which self-cleavage is on record?
A: 0.332

Q: Which self-cleavage does the source give for C24U U27G here?
A: 0.431

Q: For C24U U27A, which self-cleavage is on record?
A: 0.399

Q: With C24A G40A as the variant, how does the self-cleavage read?
A: 0.809

Q: For C24A G40C, which self-cleavage is on record?
A: 0.117

Q: For G25A G34U, which self-cleavage is on record?
A: 0.0702

Q: For G25A A43G, which self-cleavage is on record?
A: 0.35

Q: With G25A A43C as the variant, how does the self-cleavage read?
A: 0

Q: With G25A G39C as the variant, how does the self-cleavage read?
A: 0.0332

Q: With G25A G39U as the variant, how does the self-cleavage read?
A: 0.0244

Q: For C24A C63U, which self-cleavage is on record?
A: 0.692

Q: Which self-cleavage does the source give for C24A C63G here?
A: 0.723

Q: Which self-cleavage does the source give for C24A C63A here?
A: 0.882

Q: With G25A G53U as the variant, how does the self-cleavage read?
A: 0.179

Q: For C24G G40C, which self-cleavage is on record?
A: 0.0222

Q: Which self-cleavage does the source give for C24G G40A here?
A: 0.112

Q: With C24A C75A as the variant, how does the self-cleavage read?
A: 0.219

Q: Which self-cleavage does the source give for C24G C30U here?
A: 0.0712

Q: Which self-cleavage does the source give for C24G C30A here?
A: 0.0898

Q: Which self-cleavage does the source give for C24U C61A here?
A: 0.591

Q: Which self-cleavage does the source give for C24U C61U here?
A: 0.718

Q: Which self-cleavage does the source give for C24A G80A here?
A: 0.131

Q: For C24A G80C, which self-cleavage is on record?
A: 0.262

Q: Which self-cleavage does the source give for C24U C63U here?
A: 0.726

Q: Which self-cleavage does the source give for C24U C63G here?
A: 0.76

Q: With C24U C32U as the variant, how does the self-cleavage read?
A: 0.422

Q: Which self-cleavage does the source give for C24U C32A here?
A: 0.0287

Q: For C24U G76C, which self-cleavage is on record?
A: 0.997

Q: With C24U G76A as the variant, how does the self-cleavage read?
A: 0.59

Q: Which self-cleavage does the source give for C24U C44A here?
A: 0.277

Q: With C24G A78C as the variant, how does the self-cleavage read?
A: 0.0241

Q: Which self-cleavage does the source give for C24G C75G here?
A: 0.13

Q: Which self-cleavage does the source give for C24G C75A here?
A: 0.0277

Q: With C24G C75U as the variant, how does the self-cleavage read?
A: 0.0554

Q: Which self-cleavage does the source give for G25A A45G here?
A: 0.332

Q: For C24U G55U, which self-cleavage is on record?
A: 0.698

Q: With C24U G55A as the variant, how does the self-cleavage read?
A: 0.869

Q: With C24G G52U as the variant, how does the self-cleavage read?
A: 0.0852

Q: Which self-cleavage does the source give for C24U C30U here?
A: 0.142

Q: Which self-cleavage does the source give for C24U C30A here?
A: 0.0482

Q: With C24U C30G as the variant, how does the self-cleavage read?
A: 0.122

Q: With G25A G40C as the variant, how does the self-cleavage read?
A: 0.0959

Q: Which self-cleavage does the source give for G25A G40A here?
A: 0.317

Q: With C24U C57A as the variant, how does the self-cleavage read?
A: 0.831

Q: Which self-cleavage does the source give for C24U C57G here?
A: 0.779

Q: Which self-cleavage does the source give for C24U C57U here?
A: 0.538

Q: Which self-cleavage does the source give for C24U G52A here?
A: 0.554

Q: For C24G C58A, which self-cleavage is on record?
A: 0.121

Q: With C24G C58U as the variant, how does the self-cleavage read?
A: 0.117

Q: For C24G C58G, which self-cleavage is on record?
A: 0.108

Q: With C24U U47G as the variant, how does the self-cleavage read?
A: 0.266

Q: Which self-cleavage does the source give for C24U U47A here?
A: 0.658

Q: Which self-cleavage does the source give for C24U G53A here?
A: 0.87

Q: Which self-cleavage does the source give for C24U G53U here?
A: 0.802

Q: For C24A U37G, which self-cleavage is on record?
A: 0.142

Q: Which self-cleavage does the source give for C24A U37A here?
A: 0.145

Q: Which self-cleavage does the source give for C24A U37C here?
A: 0.974

Q: For C24G G74U, which self-cleavage is on record?
A: 0.0554

Q: With C24U C66G as the variant, how does the self-cleavage read?
A: 0.796

Q: For C24U C66U, which self-cleavage is on record?
A: 0.629

Q: Which self-cleavage does the source give for G25A C57A here?
A: 0.194

Q: With G25A C57U as the variant, how does the self-cleavage read?
A: 0.232

Q: Which self-cleavage does the source give for G25A C57G here?
A: 0.224

Q: With C24G A45C as the variant, how does the self-cleavage read?
A: 0.0302

Q: For C24G A45G, which self-cleavage is on record?
A: 0.222

Q: With C24G G39U as the variant, how does the self-cleavage read?
A: 0.0314

Q: Which self-cleavage does the source give for C24A C58A here?
A: 0.863

Q: With C24A C58U as the variant, how does the self-cleavage read?
A: 0.742

Q: Which self-cleavage does the source give for C24A C58G here?
A: 0.855

Q: With C24G U47A as the variant, how does the self-cleavage read?
A: 0.106

Q: Which self-cleavage does the source give for C24G U47G here?
A: 0.0978

Q: With G25A C86U as the variant, how does the self-cleavage read?
A: 0.248

Q: For C24G A71G, which self-cleavage is on record?
A: 0.102

Q: For C24G A71C, which self-cleavage is on record?
A: 0

Q: With C24G A71U as the variant, how does the self-cleavage read?
A: 0.106

Q: For C24U C64U, which self-cleavage is on record?
A: 0.511

Q: For C24U C64A, which self-cleavage is on record?
A: 0.848

Q: With C24G U46A as the variant, how does the self-cleavage read?
A: 0.0326

Q: With C24G U46G as the variant, how does the self-cleavage read?
A: 0

Q: For C24G U46C, which self-cleavage is on record?
A: 0.106

Q: With C24G C32A as the variant, how does the self-cleavage read?
A: 0

Q: Which self-cleavage does the source give for C24G C32U here?
A: 0.0773

Q: For C24G C32G, which self-cleavage is on record?
A: 0.0504

Q: With C24G C33G as the variant, how does the self-cleavage read?
A: 0.0475

Q: Which self-cleavage does the source give for C24G C33A here?
A: 0.244

Q: With C24U C86G as the variant, how does the self-cleavage read?
A: 0.577

Q: Which self-cleavage does the source give for C24U C86U here?
A: 0.69

Q: For C24U C86A, which self-cleavage is on record?
A: 0.808

Q: Which self-cleavage does the source give for C24G G82C here?
A: 0

Q: Which self-cleavage does the source give for C24G G82A here?
A: 0

Q: With C24G G25U as the variant, how does the self-cleavage read?
A: 0.0773

Q: Which self-cleavage does the source give for G25A A70G here?
A: 0.0791

Q: With C24G A83U as the variant, how does the self-cleavage read?
A: 0.141

Q: Which self-cleavage does the source give for C24G A83C here?
A: 0.0923

Q: With C24A C61U as the variant, how does the self-cleavage read?
A: 0.757

Q: For C24A C61G, which self-cleavage is on record?
A: 0.678

Q: For G25A C32G, which self-cleavage is on record?
A: 0.0623

Q: Which self-cleavage does the source give for C24G C64U here?
A: 0.0886

Q: For C24G C64G, which self-cleavage is on record?
A: 0.131

Q: With C24G C41A as the variant, how does the self-cleavage read?
A: 0.113

Q: Which self-cleavage does the source give for C24U U60G here?
A: 0.573

Q: With C24A U46A as the variant, how does the self-cleavage read?
A: 0.213

Q: With G25A C36U as the variant, how does the self-cleavage read?
A: 0.153

Q: Which self-cleavage does the source give for C24G U65G here?
A: 0.233

Q: For C24G U65A, which self-cleavage is on record?
A: 0.208

Q: Which self-cleavage does the source give for C24A C85G here?
A: 0.69

Q: Which self-cleavage does the source give for C24A C85U here?
A: 0.594

Q: For C24G G55C, which self-cleavage is on record?
A: 0.0656

Q: Which self-cleavage does the source give for C24G G55U here?
A: 0.16

Q: With C24G G38C as the variant, how does the self-cleavage read?
A: 0.0791

Q: With C24G G38A as the variant, how does the self-cleavage read?
A: 0.0631

Q: Which self-cleavage does the source give for G25A C66U here?
A: 0.338

Q: For C24A G59U, which self-cleavage is on record?
A: 0.783

Q: With C24U A71G as the variant, how does the self-cleavage read?
A: 0.648

Q: For C24U A71U, which self-cleavage is on record?
A: 0.587

Q: Which self-cleavage does the source give for C24A U79C here?
A: 0.12

Q: With C24A U79G as the variant, how does the self-cleavage read?
A: 0.312

Q: Which self-cleavage does the source give for G25A C84U here?
A: 0.173

Q: For G25A C48A, which self-cleavage is on record?
A: 0.491

Q: For G25A C48G, which self-cleavage is on record?
A: 0.122

Q: Which self-cleavage does the source give for C24G C66G here?
A: 0.13

Q: Which self-cleavage does the source give for C24G C66U here?
A: 0.166

Q: For C24G G29C, which self-cleavage is on record?
A: 0

Q: With C24G G29U as the variant, how does the self-cleavage read?
A: 0.0692

Q: Which self-cleavage does the source give for C24G G29A here?
A: 0.188

Q: Which self-cleavage does the source give for C24G A70C here?
A: 0.0978

Q: Which self-cleavage does the source give for C24G A70U here?
A: 0.0627

Q: For C24U G81A, which self-cleavage is on record?
A: 0.185

Q: With C24U G81C as the variant, how does the self-cleavage read?
A: 0.111

Q: With C24G G67A as the variant, how does the self-cleavage read?
A: 0.119

Q: With C24G G67C as the variant, how does the self-cleavage read?
A: 0.026

Q: With C24U G29U as the variant, how does the self-cleavage read?
A: 0.0594

Q: With C24U G29C as the variant, how does the self-cleavage read?
A: 0.138

Q: Which self-cleavage does the source give for C24U A51G here?
A: 0.415

Q: With C24A G35U as the variant, how does the self-cleavage read?
A: 0.298

Q: For C24A U69A, which self-cleavage is on record?
A: 0.635
